Laboratory results reported in PMC11852929 (Journal of Virology, 2025).

Biological target: T1, SARS-CoV-2 Omicron BA.5 S ectodomain trimer (BA.5-Spike-6P) (SARS-CoV-2 Omicron BA.5, S375F | D405N | R408S | K417N | Q498R | N501Y | Y505H)
T1 construct: also called BA.5 spike (S) trimer; BA.5 S trimer
Experiment: cryo-EM structure
Conditions: both partners purified

B1: ORB10 fragment antigen-binding region (Fab) (Fab, V domains shown)
VH: QVQLQQSGAELVRPGSSVKISCKASGYAFSNYWMNWVKQRPGEGLEWIGQIYPGDGDTDYNGKFKGRATLTADKSSSTAYMQLSSLTSEDSAVYFCARGDDGYYVYFDYWGQGTTLTVSS
VL: EIVLTQSPALMAASPGEKVTITCSVSSSIGSNNLHWYQQKSETSPKPWIYGTSNLASGVPVRFSGSGSGTSYSLTISTMEAEDAATYYCQQWSGYPLTFGGGTKLEIK
notes: also called ORB10 Fab
  stoichiometry N: 2 Fabs per S trimer
